# Assay results from patent publication US5650301A, “Hirudin HV2 having a SN7LYS substitution, method of making, and method of use” (Transgene S.A., priority 1986, dated 1997).
# Columns and labels:
# thrombin [1] = target: T1, thrombin (Homo sapiens, UniProt P00734); experiment: Kinetics of inhibition of human thrombin by purified hirudin variants (chromozyme PL); format: biochemical; set-up: The specific antithrombin activity (human and bovine thrombin) of the two recombinant hirudins
# Excerpt: To study the kinetics of inhibition of thrombin by these variants, the theory of high affinity inhibitors, as described in J. W. WILLIAMS and J. F. MORRISON Methods in Enzymology 63 pp. 437-467, 1979, is used, since hirudin is a reversible inhibitor of thrombin.
# The variants of hirudin used are purified to 95% and the Sigma pure human thrombin has a percentage activity, measured by titration of the active site, which is above 92%. The concentration of human thrombin is the same for all the measurements, namely 5.5×10^-9 M. The medium is an 0.05M sodium PIPES buffer, pH 7.9, 0.18M KCl and 0.1% PEG at 37° C. The thrombin substrate is Boehringer chromozyme PL. A preincubation time of 2 minutes is observed for the thrombin and hirudin, and the reaction is then initiated with the substrate.
# The following table summarizes the values determined experimentally for the quantity of hirudin required for a 95% inhibition of the same quantity of human thrombin (5.5×10^-9 M).
# rat and rabbit plasma = experiment: Anticoagulant activity in vitro in plasma, prolongation of the thrombin time; conditions: higher concentrations, compared with rHV2
# Experimental: (§1) b) The anticoagulant activity of the two hirudins is compared in vitro in rat and rabbit plasma in terms of prolongation of the thrombin time, and the anti-IIa effect is measured chromogenically.
# bleeding time in rats = conditions: rat, in vivo
# hemorrhage in rabbits = conditions: rabbit, in vivo
# bovine thrombin = target: T2, bovine thrombin (Bos taurus, UniProt P00735); experiment: Specific antithrombin activity, inhibition of proteolytic activity of thrombin on chromozyme; format: biochemical; conditions: stock solution 1 mg/ml in physiological saline
# T2 construct: The specific antithrombin activity (human and bovine thrombin) of the two recombinant hirudins
# Experimental: (§2) a) The specific antithrombin activity (human and bovine thrombin) of the two recombinant hirudins in physiological saline is determined on the basis of the inhibition of the proteolytic activity of thrombin on chromozyme.
# (§3) a) For a preparation of stock solution at a concentration of 1 mg/ml, the specific antithrombin activity of the two variants of hirudin with respect to human and bovine thrombins is expressed in Table 1 below: […]
# [2] = test system: venous thrombosis in rats; experiment: Wessler's model in rats; format: in vivo; conditions: RAT i.v. bolus, -5 min 40 s before stasis
# Experimental: (§4) e) The antithrombotic activity of the two variants of hirudin and of standard heparin is studied in Wessler's rabbit and rat model, with thromboplastin as thrombogenic agent, and in the model of stasis in rabbits (Fareed). The compounds are administered by continuous perfusion in rabbits and by i.v. bolus in rats.
# Male (CD-COBS) Sprague-Dawley rats weighing approximately 300 g were used. […] Two flexible ligatures were positioned 0.7 cm apart.
# The test products, diluted in physiological saline, were injected in an i.v. bolus at 1 ml/kg, 5 min 40 s or 1 min (heparin) before the production of venous stasis. Forty seconds before this stasis, a thrombogenic agent (rabbit thromboplastin, E. Dade) was injected at a dose of 25 mg/ml/kg into the vein of the penis in the space of 30 seconds, measured very exactly. Ten seconds after the end of the injection, stasis was established by tightening the two ligatures, first the proximal and then the distal. The stasis was maintained for 10 minutes, and the thrombus was then removed, immersed in a 0.38% strength citrate solution, dried with general-purpose absorbent paper and weighed on the following day after drying for one hour at […].
# [3] = test system: residual thrombin in the rat and rabbit plasma; experiment: Anti-IIa effect in plasma, residual thrombin by chromogenic substrate; format: biochemical; conditions: above 60 ATU/ml, compared with rHV2
# Experimental: as §1
# thrombin [4] = target: T1, thrombin; experiment: Specific antithrombin activity, inhibition of proteolytic activity of thrombin on chromozyme; format: biochemical; set-up: The specific antithrombin activity (human and bovine thrombin) of the two recombinant hirudins
# Experimental: as §2, §3
# [5] = test system: thrombosis by blood stasis in rabbits; experiment: Model of thrombosis by blood stasis in rabbits; format: in vivo; conditions: RABBIT i.v. perfusion
# Experimental: as §4
# Male New Zealand rabbits weighing 2.5 to 3 kg were used in this study. After intravenous anesthesia with pentobarbital sodium (30 mg/kg), the left carotid was cannulated and the two jugular veins were isolated; two slack ligatures were placed on each of them, at a distance of 2.5 cm from one another. The rabbits then received either physiological saline or solutions of hirudin or heparin in continuous perfusion for 30 minutes, at a flow rate of 2.5 ml/hour. Two minutes before the end of perfusion, arterial blood samples were drawn in order to determine the plasma levels of the anticoagulants. At the same time as the perfusion was stopped, stasis was established by tightening the four ligatures (first the proximal and then the distal). The stasis was maintained for 2 hours, the jugulars were then opened and the thrombi extracted, rinsed in physiological saline and weighed after blotting with filter paper.
# thrombin [6] = target: T1, thrombin; experiment: Inhibitory effect of crude yeast culture supernatants on thrombin activity (chromozyme TH); format: biochemical; conditions: yeast culture supernatants after 48 h, compared with native HV2 (FIG. 2)
# Experimental: 20 ml of culture (YNBG+0.5% casamino acids) at OD660 0.02 were seeded with each strain. After 48 h of agitation at 30° C. the cultures were centrifuged (5000 rpm, 5 min) and the supernatants assayed. A culture of TGY1sp4 pTG881 (plasmid not carrying the coding sequence for HV2) was used as a control.
# The activity of the crude supernatants is measured in terms of their inhibitory effect with respect to thrombin activity (proteolytic activity on a synthetic substrate, chromozyme TH--Boehringer Mannheim).
# [7] = test system: venous thrombosis in rabbits; experiment: Wessler's model in rabbits (thromboplastin as thrombogenic agent); format: in vivo, rabbit
# Experimental: as §4
# Male New Zealand rabbits weighing 2.5 to 3 kg were used in this study. After anesthesia by intravenous injection of pentobarbital sodium (30 mg/kg), the left carotid was cannulated and the two jugular veins were isolated; two slack ligatures were placed on each of them at a distance of 2.5 cm from one another. The rabbits then received either physiological saline or solutions of hirudin or heparin in continuous perfusion for 30 minutes at a flow rate of 2.5 ml/hour. Two minutes before the end of the perfusion, arterial blood samples were drawn in order to determine the plasma levels of the anti-coagulants. One minute before the end of the perfusion, human thromboplastin (Manchester Comparative Reagents Ltd), standardized according to M. Buchanan's procedure, was injected at a dose of 600 ug/kg during exactly 30 seconds into the aorta via the carotid. Thirty seconds later the perfusion was stopped and blood stasis was produced by tightening the ligatures on the two venous segments for 15 minutes. […]
molecule,measurement,setting,value
"ILE THR TYR THRASP CYS THR GLU SER GLY GLN ASN LEU CYS LEU CYS GLU GLY SER ASN VAL CYS GLY LYS GLY ASN LYS CYS ILE LEU GLY SER ASN GLY LYS GLY ASN GLN CYS VAL THR GLY GLU GLY THR PRO LYS PRO GLU SER … (protein, printed: ILE THR TYR THRASP CYS THR GLU SER GLY GLN ASN LEU CYS LEU CYS GLU GLY SER ASN VAL CYS GLY LYS GLY ASN LYS CYS ILE LEU GLY SER ASN GLY LYS GLY ASN GLN CYS VAL THR GLY GLU GLY THR PRO LYS PRO GLU SER HIS ASN ASN GLY ASP PHE GLU GLU ILE PRO GLU GLU TYR LEU GLN, recombinant hirudin HV2 variant in which the Asn^47 is replaced by a Lys, produced in yeast) ITYTDCTESGQNLCLCEGSNVCGKGNKCILGSNGKGNQCVTGEGTPKPESHNNGDFEEIPEEYLQ",Quantity for attaining 95% inhibition of thrombin,"thrombin [1]; human thrombin 5.5×10^-9 M, PIPES pH 7.9, 37° C., chromozyme PL, 2 min preincubation",7.6 10^-9 M
same,fold less hirudin than HV2 required for inhibiting the same quantity of human thrombin,thrombin [1]; relative to hirudin HV2,approximately 4 fold
same,anticoagulant activity determined in terms of the thrombin time,rat and rabbit plasma,markedly superior
same,prolongation of the bleeding time,bleeding time in rats,less than those in animals treated with standard heparin
same,risk of hemorrhage,hemorrhage in rabbits,less than those in animals treated with standard heparin
same,specific antithrombin activity for bovine thrombin,bovine thrombin,"19,200 ATU/mg"
same,"Antithrombotic effects, WESSLER",[2],160 µg/kg
same,further neutralizing the traces of residual thrombin,[3],more effective
same,"specific antithrombin activity, results expected for human thrombin",thrombin [4]; expected values,"16,000 ATU/mg"
same,specific antithrombin activity for human thrombin,thrombin [4]; stock solution 1 mg/ml in physiological saline,"19,000 ATU/mg"
same,specific antithrombin activity,"thrombin [4]; summary value of the text, identical for the human and bovine thrombins","~19,000 ATU/mg"
same,"Antithrombotic effects, STASIS",[5],47 µg/kg/h
same,inhibitory effect of crude supernatants with respect to thrombin activity,thrombin [6],at least equal to that of native HV2
same,"Antithrombotic effects, WESSLER",[7]; RABBIT i.v. perfusion,20 µg/kg/h
same,antithrombotic activity,"[7]; continuous perfusion in rabbits, compared with rHV2 and heparin",superior to those of rHV2 and heparin
